Reference: US20060045881A1 (University of Texas, published 2006)

How the values were obtained:
[1] = target: T1, HLA-A2.1 heavy chain with I125-labeled beta2-microglobulin (heterotrimer complex assay) (human, I125-labeled); assay: dissociation of I125-labeled beta2-microglobulin from heavy chain/peptide/beta2m complex, HPLC gel filtration
T1 construct: Cell-free assay; also called heterotrimer complex of the HLA-A2.1 heavy chain, peptide, and beta2-microglobulin

[2] = target: T2, HLA-A2.1 (HLA-A*0201) on the surface of T2 cells (human)
T2 construct: also called surface HLA-A2.1 on T2

Row | T1/2 (binding half-life) [1] | FI CCNE2144-152/FI PR1 (fluorescence ratio against PR1) [2] | Binder
1 | 24.3 h | – | VLQELNVTV (Synthetic peptide, minimum 95% purity) [PR1 peptide (proteinase 3 aa 169-177, VLQELNVTV)]
2 | – | 1.19 ratio | ILLDWLLEV (also called cyclin E2 peptide) [CCNE2 144-152 (cyclin E2 derived nonameric peptide)]
3 | 2.33 h | – | RLFPDFFTRV [PR2 peptide (proteinase 3 derived, RLFPDFFTRV as printed in Table 4)]
